Results taken from publication PMC7279886, “A non-linear system patterns Rab5 GTPase on the membrane” (eLife, 2020).

Columns and labels:
Settings in all cases: both partners purified
Rabex5 = target: T1, Rabex5 (Bos taurus, UniProt O18973 1-492); test: HDX-MS; Rabex5/Rabaptin5 premixed with Rab5:GDP, ternary complex diluted into deuterated buffer without GTPγS, 1, 5 and 15 min, 22 °C
T1 construct: Rabex5, Bos taurus, 57 kDa Vps9 domain containing GEF for Rab5; The His tag served for capture in the co-purification and was then cut with 3C protease; also called Rabex5-6xHis

Rabex5/Rabaptin5 complex = target: T2, Rabex5/Rabaptin5 complex (Bos taurus | human, UniProt O18973 1-492; Q15276 1-862); test: as above
T2 construct: Rabex5, Bos taurus, 57 kDa Vps9 domain containing GEF for Rab5; Rabaptin5, human, 99 kDa; also called GEF/effector complex; not shown: GST, N-terminal, cleaved; copies: 2 + 2

Rabaptin5 = target: T3, Rabaptin5 (human, UniProt Q15276 1-862); test: HDX-MS; Rabex5/Rabaptin5 premixed with Rab5:GDP, ternary complex diluted into deuterated buffer with GTPγS, 1, 5 and 15 min, 22 °C; uptake compared with the sample without GTPγS
T3 construct: Rabaptin5, human, 99 kDa; GST served for capture in the co-purification and was then cut from the resin with GST-3C protease; also called GST-Rabaptin5; not shown: GST, N-terminal, cleaved
T3 sequence (looked up): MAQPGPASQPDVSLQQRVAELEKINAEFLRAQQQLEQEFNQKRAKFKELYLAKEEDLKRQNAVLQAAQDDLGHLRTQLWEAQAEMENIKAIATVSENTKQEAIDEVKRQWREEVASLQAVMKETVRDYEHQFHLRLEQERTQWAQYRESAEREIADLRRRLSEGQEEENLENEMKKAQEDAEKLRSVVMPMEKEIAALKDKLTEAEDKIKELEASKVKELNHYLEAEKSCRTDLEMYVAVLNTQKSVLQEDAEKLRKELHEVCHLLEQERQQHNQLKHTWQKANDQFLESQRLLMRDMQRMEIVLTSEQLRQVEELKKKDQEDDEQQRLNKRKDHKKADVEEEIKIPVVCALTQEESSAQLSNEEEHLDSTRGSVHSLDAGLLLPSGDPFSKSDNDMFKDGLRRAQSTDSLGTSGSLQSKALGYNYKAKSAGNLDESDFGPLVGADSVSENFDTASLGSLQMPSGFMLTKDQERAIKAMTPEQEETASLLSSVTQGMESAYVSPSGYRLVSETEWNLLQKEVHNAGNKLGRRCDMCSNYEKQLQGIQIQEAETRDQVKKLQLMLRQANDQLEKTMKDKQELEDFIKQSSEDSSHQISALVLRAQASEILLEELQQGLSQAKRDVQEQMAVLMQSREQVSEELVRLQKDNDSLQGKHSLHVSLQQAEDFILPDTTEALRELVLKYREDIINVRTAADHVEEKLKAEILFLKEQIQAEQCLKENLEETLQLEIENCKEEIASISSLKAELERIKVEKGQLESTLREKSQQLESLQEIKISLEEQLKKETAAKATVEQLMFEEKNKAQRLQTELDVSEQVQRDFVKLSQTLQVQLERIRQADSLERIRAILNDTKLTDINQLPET

Measured: binding result

T1 sequence (O18973 whole entry, the tested form may be a part): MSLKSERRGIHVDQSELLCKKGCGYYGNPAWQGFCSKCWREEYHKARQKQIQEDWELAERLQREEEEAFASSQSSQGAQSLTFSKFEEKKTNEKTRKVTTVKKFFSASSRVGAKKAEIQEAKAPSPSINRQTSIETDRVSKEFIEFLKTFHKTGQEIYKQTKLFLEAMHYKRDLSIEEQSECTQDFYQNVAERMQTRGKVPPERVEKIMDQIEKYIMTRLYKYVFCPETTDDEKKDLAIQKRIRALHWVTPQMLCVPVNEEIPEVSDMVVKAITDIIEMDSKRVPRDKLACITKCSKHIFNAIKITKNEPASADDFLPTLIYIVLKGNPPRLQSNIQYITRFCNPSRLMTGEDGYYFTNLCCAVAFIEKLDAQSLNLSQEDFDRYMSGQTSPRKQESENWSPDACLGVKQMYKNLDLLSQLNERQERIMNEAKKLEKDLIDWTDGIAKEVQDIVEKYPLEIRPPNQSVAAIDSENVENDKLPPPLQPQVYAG
T2 sequence (O18973 whole entry, the tested form may be a part, one chain of several): as the sequence (O18973 whole entry, the tested form may be a part) above

B1: Rab5 (natural protein, human, UniProt P20339 1-215, looked up)
chain: MASRGATRPNGPNTGNKICQFKLVLLGESAVGKSSLVLRFVKGQFHEFQESTIGAAFLTQTVCLDDTTVKFEIWDTAGQERYHSLAPMYYRGAQAAIVVYDITNEESFARAKNWVKELQRQASPNIVIALSGNKADLANKRAVDFQEAQSYADDNSLLFMETSAKTSMNVNEIFMAIAKKLPKNEPQNPGANSARGRGVDLTEPTQPTRNQCCSN
notes: Rab5a, human; Rab5 as used in the HDX-MS experiment, printed there without GFP; also called Rab5a; Rab5:GDP; source: Sf9, purified (Ni-NTA, SEC)
binds: all assays above
